Source: the DeepSol protein solubility set

Test: soluble on expression in E. coli; label from the status in PepcDB or PDB records

MSRGPEEVNRLTESTYRNVMEQFNPGLRNLINLGKNYEKAVNAMILAGKAYYDGVAKIGEIATGSPVSTELGHVLIEISSTHKKLNESLDENFKKFHKEIIHELEKKIELDVKYMNATLKRYQTEHKNKLESLEKSQAELKKIRRKSQGSRNALKYEHKEIEYVETVTSRQSEIQKFIADGCKEALLEEKRRFCFLVDKHCGFANHIHYYHLQSAELLNSKLPRWQETCVDAIKVPEKIMNMIEEIKTPASTPVSGTPQASPMIERSNVVRKDYDTLSKCSPKMPPAPSGRAYTSPLIDMFNNPATAAPNSQRVNNSTGTSEDPSLQRSVSVATGLNMMKKQKVKTIFPHTAGSNKTLLSFAQGDVITLLIPEEKDGWLYGEHDVSKARGWFPSSYTKLLEENETEAVTVPTPSPTPVRSISTVNLSENSSVVIPPPDYLECLSMGAAADRRADSARTTSTFKAPASKPETAAPNDANGTAKPPFLSGENPFATVKLRPTVTNDRSAPIIR
soluble on expression in E. coli: soluble

MTDLVAVWDVALSDGVHKIEFEHGTTSGKRVVYVDGKEEIRREWMFKLVGKETFFVGAAKTKATINIDAISGFAYEYTLEIDGKSLKKYMENRSKTTSTWVLRLDGEDLRVVLEKDTMDVWCNGQKMETAGEFVDDGTETHFSVGNHGCYIKAVSSRKRKEGIIHTLIVDNREIPELTQ
soluble on expression in E. coli: soluble

DQVSSLSSKYAVRLYEIIISWRAAGKTPMFSTMELRERLGMMPDEYQKMELFKRKVLDFAVKQINDKTDISITYEQHKEGRKIVGFTFSILHKIGSKDIPLENQSELFAGMTDLEAGTIRVRAEAYIASLIAKGQNVTKAHRLNILKKAVEERWGFEDVAKDNGAKNPENKNAKVVLNEWEKISNGTRFKDKDGTIWVKDSGMLRTEGTNRWIADSQIAKLFPMLTVMVEEGI
soluble on expression in E. coli: not soluble

MGSDKIHHHHHHMSNELESNDVIKISVSHLALGMFVTAIDNAKGALSITNPGQIKTQDAINKLLKSGIKSVWVDVERSADNCGLKKTSAESFEPTKGNPLARKAKPSRDSKQAQVKVILNEAKNLVRKVLSETYEGKAVEVAPFEEIADRMIESVMDDADAMKCISALRTKDAYLLEHSVNVAFLLVTFGKHLGLDKTMLKEMAVGGILHDIGKIKVDNEVLHKPGKLTPEEFAHIKLHQVYAVEIMEQTQGLAQVSKDVCLMHHEKLDGRGYPKGLKGDEIPLHGRMSCIVDIFDALTATRCYKEAMSPAAAFKILISLTPFHLDQALVYEFIRCVGIYPVGSLVQLSDERIGIVWEAKDRDALHPVVKCFYSLKHKRYTEVTMVDLRKAEVNIERGVSPGTLDVDPTPFY
soluble on expression in E. coli: not soluble

MPPRCYNSNSRRAELLERIQSDIPATVAQALSEDLGGEVNADRDLTAQLLPADKQATATIITREDGIFCGQRWLNEVFIQLGAQISIQWLVTDGDKLTANQTLCHLTGPARILLTGERTALNFLQTLSGVATEVSRYVVQLAGLKTQLLDTRKTLPGLRTALKYAVLCGGGNNHRLGLSDAFLIKENHIIAAGSIKEAVAKAFWIHADVPIEVEVESLDELQQALEAGADIVMLDNFTIPMMRDAVKMRDDHAKTQGSAQLEVSGNVTLETLRSYAETGIDFISVGALTKHITALDLSMRFQ
soluble on expression in E. coli: not soluble

MEPLKHECGIAMVRLRKPLSYYHDKYGTWMYGLNKLYLLMEKQHNRGQEGAGLAVVKLNSRPGEEYLFRERALGANAISEIFDSVHKDFQAYSREELGDAEFAASQIPYAGECYMGHLRYSTTGKSGLTFVHPMIRRSNWRAKCLSICGNFNLTNVDGIFDEITSVGQHPRNMSDTHILLEQIGHRLDREVERLFRIGKEQNLKGMDITHFIEERIDLSNVLKKCSPFWDGGYVMCGLTGSGESYAVRDPWGIRPAFYYIDDEIVVTASERPVIQTVMNLSAEAVRELMPGEAIFVNSKGEPRIERILETKNYQACSFERIYFSRGSDQDIYRERKALGYLLSERILRAIDYDISHTVFSFIPNTAEVAYYGMLEGIDHYLDECKIREIRENPNMSEAKLREILGRKVRSEKVAIKDIKLRTFITEGNSRNDLAAHVYDITYGTVQAGVDNLVVIDDSIVRGTTLRQSIIGIMDRLQPKKIVIVSSSPQIRYPDYYGIDMRKMREFVAFRSAVALLQERGMEQVLHDAYAKALELRKLSSGQEVENVVKTIYKPFTAEEISAKMVELLKPEGVRAKVEIVYQSLEGLHQAIPNHPGDWYFSGDYPTPGGAHLVNEAFISYMEEDYGK
soluble on expression in E. coli: not soluble

GPGSMLSRIKKQQAETRDAAGQSHSSGGGPSTASSEPVAILRLKKDLDNLDGIRSTIDIPDPQNMLRMKVTVRPPYPSIWQGGIFEFLLEFREDYPYEGPRVRYLGPYRIWHPNIEGDEYMEGEGGLRGDVKNTWGVCLSFQTEWKPTMSLRDIIIMIELLFQDPNPDDPLHGTAKQAAQMMKDNPAKFRDKARRWMRGGYIE
soluble on expression in E. coli: soluble

MSLVDDPLIVVNSEKVDKEYAELLMDKYYSKRTLEINSDNEIVVTENIIYNVPALDEFEINDGKGNLLVEFTKSGETVTYKNFEYEEELESDDEGDEVTFMGKTYKLIEYDEDEKIVLGNKVEDTETTEEFSYDAFTFKIIGMDSTGQILVSVYEGSDRIENVKMYPDDTYFVSGSKISIYYDEYMESGDTPYFFFEIYDSLEIEDGETISGYSNIDTDLDGKRINLEYESPKSLSQNFELLNYKVELTDVSDEDLTVFFTVTQNLNYEFDMDEGTKYFGNNIFAVKIENDEDDDSDDESYLYKNNKKYSEIVDYQGSVQLVDQDELLSASSDLILIGGPVSNKVTESIQNSLSVEVTNDYPGEGKGIIQTITNPNNDESTILVLAGSDRDGTKACVLALNQGLYSGSGNLVVKLTGDDSVSVEGHHHHHH
soluble on expression in E. coli: not soluble

MKLSLVLTARDDGARRLLADTQRQLDRTAKSRAQLERQSHTYALTGIRSEKQIQREIMLTQAAFNRLARSGKASQNDLARAAVATRNRIRELNAELKQGTGFADKMGKIGRFGAAAVAGGAAAYTVLKPAMDNRKQLDENINRVSRQAFIEDNSKSAAWIATEGAQQIKDLALELVEKNGGTHDKALDLISGMMTTGLNFAQTKNEAQAAYAFALASEGSGEDTAKLIKTLKDGGMSGKDLQLGLEHVLQSGLDGTFEVRDMVRELPSLLSAAQQAGMNGVGGLDYLLSLLQSAANKSGSPAEAATNVQNLLSKTLSPDTIGRLKKMANPNDPKKGVDWIGSVVQGKQNGENAVQVLSRLADAMLVKDKQYQDYKKRAAAGDKTAAEQANMLKGALLAQLLPDLQAKQGLLAATDMTQIREYMASLAGVTLDNGKIAKNNEARMLSAAAQQEQQESLAMLRESLTGTLVDMETSFKKLAAEYPNATLALQALTTAATAASAAMLLTAGGGKGAGFLKDVGSKALGWGKASAGGVAAGATAAGGKLLSWGKSAGSGLMNNPALVKRAGLLGMLLYSESLGDGTLPKGLRGTKTTPEMINRLKNNGIRFEPAPKREQARGGVPQYLAAPSAQPTDKMLSPLFSTQTAAYQAAIQQQTAAYQAALAQDTAAVTTGLAQVQSAMASASQTINTNVSLNIDGRVIANEVSRYQVAMFGRGAGQ
soluble on expression in E. coli: not soluble

MASWSHPQFEKGASTSLYKKAGLMDSQRSTLVHWFRKGLRLHDNPALSHIFTAANAAPGRYFVRPIFILDPGILDWMQVGANRWRFLQQTLEDLDNQLRKLNSRLFVVRGKPAEVFPRIFKSWRVEMLTFETDIEPYSVTRDAAVQKLAKAEGVRVETHCSHTIYNPELVIAKNLGKAPITYQKFLGIVEQLKVPKVLGVPEKLKNMPTPPKDEVEQKDSAAYDCPTMKQLVKRPEELGPNKFPGGETEALRRMEESLKDEIWVARFEKPNTAPNSLEPSTTVLSPYLKFGCLSARLFNQKLKEIIKRQPKHSQPPVSLIGQLMWREFYYTVAAAEPNFDRMLGNVYCMQIPWQEHPDHLEAWTHGRTGYPFIDAIMRQLRQEGWIHNLARHAVACFLTRGDLWISWEEGQRVFEQLLLDQDWALNAGNWMWLSASAFFHQYFRVYSPVAFGKKTDPQGHYIRKYVPELSKYPAGCIYEPWKASLVDQRAYGCVLGTDYPHRIVKHEVVHKENIKRMGAAYKVNREVRTGKEEESSFEEKSET
soluble on expression in E. coli: soluble

MGSDKIHHHHHHMAVSAKYDEFNHWWATEGDWVEEPNYRRNGMSGVQCVERNGKKLYVKRMTHHLFHSVRYPFGRPTIVREVAVIKELERAGVIVPKIVFGEAVKIEGEWRALLVTEDMAGFISIADWYAQHAVSPYSDEVRQAMLKAVALAFKKMHSINRQHGCCYVRHIYVKTEGNAEAGFLDLEKSRRRLRRDKAINHDFRQLEKYLEPIPKADWEQVKAYYYAM
soluble on expression in E. coli: not soluble

MYRRLASGLYQTSQRRIAQVQPKSVFVPETIVTTLPNGFRVATENTGGSTATIGVFIDAGSRYENEKNNGTAHFLEHMAFKGTPRRTRMGLELEVENIGAHLNAYTSRESTTYYAKCFTEKLDQSVDILSDILLNSSLATKDIEAERGVIIREMEEVAQNFQEVVFDILHADVFKGNPLSYTILGPIELIQTINKNDLQGYINTHYRSGRMVLAAAGGVNHDAIVKMAEKYFGELKHGDSSTEFVPATYSPCEVRGDIPDLPMLYGAMVVEGVSWTHEDNLALMVANTLMGEYDRMRGFGVNAPTRLAEKLSQDAGIEVFQSFNTCYKETGLVGTYFVAAPESIDNLIDSVLQQWVWLANNIDEAAVDRAKRSLHTNLLLMLDGSTPVCEDIGRQLLCYGRRIPTPELHARIESITVQQLRDVCRRVFLEGQVSAAVVGKTQYWPVNEEIHGRLIRMQ
soluble on expression in E. coli: not soluble

MAPTMNNGWMDSLSWIKSETPENSVVTCWWDNGHIYTWATRKMVTFDGGSQNTPRAYWVGHAFSTSDENLSVGILRMLATSGDSAYDDDSILIKKTGSIKDTVDILNKILPLTRTEAKASLVNNYDLTDAEAEEVLDLTHPKVTNPDYLITYNRMTSIASVWSMFGNWNFSLPASTENSDREMGLEHHHHHH
soluble on expression in E. coli: soluble

MDINTDKYKNITRNLEREMINLNPIQRGGILPTESKKIIYEYWDGYSVCDYCSGRLDQIETPPINEFLEDMSKFLGMDITRPTHGARESKYAVMNSICKEGDYVVLDGNAHYTSYVALERAKLNYEKTDIEEYPTFRVIPESYAEKIDMLEDSKKNIGLILLTHVDGNYGNVADVEKVGKIAKSKGYPFLLNCAYSAGRMPIDGKKLNVDFIAASGHKSMAASGPCGLLSINKKYENEVLETSKVNVLKELQMLGCTSRGIPILSLMASFEHLIERVKKWDLELEKTRKVVNELEPLGFKQIGEKPRNHDIIRFETPILDEIAEKDKRRGFFFYEELKKRGIGGIRRGVTKEFKMSVYGLTNTQVDYVINSMKSIINELR
soluble on expression in E. coli: not soluble

MGHHHHHHSHMLLTPRQDEIVALAKANGRVLVDELAARFSVTPQTIRKDLNDLCDTRVLTRIHGGALFPSGNENVKYEARRAIASVEKQAIGAAAAALIPNNSSLFINIGTTTEAVGEALADHHELMVITNNINVANRLRVFPGIEVVIAGGVVRGSDGGIVGEAAVDFIRQFKVDFAVIGVSAIDEDGALLDFDFREVKVAQAIISNARHVILVSDSLKFERTAPVRIGHLSQVHTFITDHCPVDSIRSICADHDVRLIETEARDA
soluble on expression in E. coli: soluble

MKQDVILVLDCGATNVRAIAVDRQGKIVARASTANASDIAAENSAWHQWSLDAILQRFADCCRSLSSALSECVVRGITVTTFGVDGALVDAQGKLLYPVISWKCPRTAAVMETIERFISPRQLQTLSGVGAFSFNTLYKLVWLKENHPRLLEQAHCWLFISSLINHRLTGEFTTDITMAGTSQLLDIHQRDFSPEILQATGLARRLFPRIVEAGAPIGTLQTDAARLLGLPAGVPVISAGHDTQFALFGAGAQQGEPVLSSGTWEILMVRSGQVDTSLLSQYPGSTCELDSQSGLYNPGMQWLASGVLEWVRKLLWTPETPWQTLIDEARAIPAGAEGVRMQCDLLACQNAGWQGVTLNTTRGHFYRAALEGLTAQLQRNLRTLEKIGHFNATELLLVGGGSRNALWNQIKANQLDIPIKVLDDAETTVAGAAMFGWYGVGEFSSPEQARAQVNYQYRYFWPQTEPEIIEGV
soluble on expression in E. coli: not soluble
